Target: T1, Recombinant human IL13 (PeproTech) (human, UniProt P35225 35-146, limits assumed)
T1 construct: Bought reagent; also called interleukin 13
Assay: SPR, BIAcore 3000, IL-13 amine-coupled to CM5 sensor chip (7700 RU), peptide as analyte
Protocol: Binding of D1 peptide to IL-13 was monitored by surface plasmon resonance on a BIAcore 3000 instrument (BIAcore Inc, Switzerland). IL-13 was covalently amino coupled to a CM-5 sensor chip. An immobilization level of 7700 RU was obtained. A nonderivatized flow cell was used as a control. The interaction between D1 peptide and the immobilized IL13 was determined by changes in the RU at different D1 concentrations.
A direct quantitative analytical method as Biacore was used to determine the affinity of the D1 peptide binding to IL-13 (FIG. 3C). Some limitations in the quantitative adjustment to the established models of the Biacore instrument caused a difficult interpretation of the results and impede an accurate determination of the affinity.

T1 sequence (P35225 35-146 limits assumed): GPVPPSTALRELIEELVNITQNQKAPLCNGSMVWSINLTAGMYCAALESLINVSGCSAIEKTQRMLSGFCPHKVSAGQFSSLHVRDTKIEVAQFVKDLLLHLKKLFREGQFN

B1: IL13Rα2D1 peptide (GSETWKTIITKN) (peptide)
peptide: GSETWKTIITKN
notes: Made by solid phase synthesis; also called peptide IL13Rα2 D1; L-version
Question: Which Kd does the source give for B1 here?
Answer: The Kd was about 100 µM.

From patent US20210363224A1 (CONSEJO SUPERIOR DE INVESTIGACIONES CIENT FICAS, published 2021)
